Reference: US20070021595A1
One block for each binder: values may come before it.

Key:
[1] = target: HBV recombinant antigen GST-pre-S1(1-56) (hepatitis B virus); assay: competitive ELISA, GST-pre-S1(1-56) on plate, COS7 supernatant
[2] = target: HBV recombinant antigen GST-pre-S1(1-56) (hepatitis B virus); assay: competitive ELISA, pre-S1 antigen in solution and on plate
[3] = target: HBV recombinant antigen GST-pre-S1(1-56) (hepatitis B virus); assay: competitive ELISA as in Test Example 2
[4] = target: HBV recombinant antigen GST-pre-S1(1-56) (hepatitis B virus); assay: competitive ELISA as in Test Example 2, purified antibody from CHO cells

- Kd [1]: 11 nM
- Kd [2]: 8.2 nM
B1: chimeric antibody chKR127 (wild type) (antibody, V domains shown)
VH: QVQLVQSGAEVKAPGASVKVSCKASGYTFTSAWMNWVRQAPGQGLEWMGRIYPSGGSTSYAQKFQGRVTMTADKSTSTVYMELSSLRSEDTAVYYCAREYRVARWGQGTLVTVSA
VL: DIVMTQTPLSLSVTPGQPASISCKSSQSLLYSNGKTYLNWLLQKPGQPPQRLIYLVSNRDSGVPDRFSGSGSGTDFTLKISRVEAEDVGVYYCVQGTHFPQTFGGGTKVEIK

- Kd [3]: 0.15 nM
- fold higher affinity than HZKR127I [3]: 50 fold
B2: humanized antibody of humanized heavy chain HuKR127HC (HuKR127VH-VII) and humanized antibody HZKR127I light chain (antibody, part only; not given: Light chain, V domains shown, part only)
VH: B1 VH

- Kd [4]: 0.16 nM
- fold higher affinity than the control group [4]: 50 fold
B3: humanized antibody HuKR127 (antibody, V domains shown)
VH: B1 VH
VL: B1 VL
